The target in the data set is STF-1 / Pbx complex C2 of Tu-6 nuclear extract (UniProt P52947+P40424). The experiment in a line: EMSA. The settings on record: off-rate with 1000-fold unlabeled TSEII, room temperature; C2 supershift/block by STF-1 and Pbx antisera.
Chain of STF-1 / Pbx complex C2 of Tu-6 nuclear extract (P52947 whole entry, chain 1 of 2): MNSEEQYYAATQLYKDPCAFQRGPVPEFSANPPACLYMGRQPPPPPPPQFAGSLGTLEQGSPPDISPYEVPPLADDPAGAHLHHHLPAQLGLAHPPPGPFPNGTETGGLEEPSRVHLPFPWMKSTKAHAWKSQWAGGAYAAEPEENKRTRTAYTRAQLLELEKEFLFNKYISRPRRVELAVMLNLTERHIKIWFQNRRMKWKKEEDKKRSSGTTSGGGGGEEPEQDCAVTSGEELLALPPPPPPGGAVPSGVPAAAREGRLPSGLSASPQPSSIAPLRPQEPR
Chain of STF-1 / Pbx complex C2 of Tu-6 nuclear extract (P40424 whole entry, chain 2 of 2): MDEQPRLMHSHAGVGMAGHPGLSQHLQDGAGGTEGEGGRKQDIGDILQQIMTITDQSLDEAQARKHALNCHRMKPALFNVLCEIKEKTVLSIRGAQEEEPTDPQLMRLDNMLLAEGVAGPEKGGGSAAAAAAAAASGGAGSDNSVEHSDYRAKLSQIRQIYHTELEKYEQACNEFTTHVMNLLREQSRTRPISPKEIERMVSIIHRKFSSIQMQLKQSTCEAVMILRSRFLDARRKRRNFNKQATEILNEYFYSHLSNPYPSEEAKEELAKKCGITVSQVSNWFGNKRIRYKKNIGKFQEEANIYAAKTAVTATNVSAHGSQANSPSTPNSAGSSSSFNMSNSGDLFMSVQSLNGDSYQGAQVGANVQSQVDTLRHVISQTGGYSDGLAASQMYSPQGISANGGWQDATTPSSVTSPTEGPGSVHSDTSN

As to “GATCTCAGTAATTAATCATGCA / AGTCATTAATTAGTACGTCATG [somatostatin TSEII]”, the koff (min (half-life)) worked out at 15.
